Laboratory results published in patent US20210030857A1 (NGM BIOPHARMACEUTICALS, published 2021).

T1: human beta klotho expressed on cells (human, UniProt Q86Z14 1-1044)
T1 construct: also called HuKLB overexpressing cells; Human KLB
T1 sequence: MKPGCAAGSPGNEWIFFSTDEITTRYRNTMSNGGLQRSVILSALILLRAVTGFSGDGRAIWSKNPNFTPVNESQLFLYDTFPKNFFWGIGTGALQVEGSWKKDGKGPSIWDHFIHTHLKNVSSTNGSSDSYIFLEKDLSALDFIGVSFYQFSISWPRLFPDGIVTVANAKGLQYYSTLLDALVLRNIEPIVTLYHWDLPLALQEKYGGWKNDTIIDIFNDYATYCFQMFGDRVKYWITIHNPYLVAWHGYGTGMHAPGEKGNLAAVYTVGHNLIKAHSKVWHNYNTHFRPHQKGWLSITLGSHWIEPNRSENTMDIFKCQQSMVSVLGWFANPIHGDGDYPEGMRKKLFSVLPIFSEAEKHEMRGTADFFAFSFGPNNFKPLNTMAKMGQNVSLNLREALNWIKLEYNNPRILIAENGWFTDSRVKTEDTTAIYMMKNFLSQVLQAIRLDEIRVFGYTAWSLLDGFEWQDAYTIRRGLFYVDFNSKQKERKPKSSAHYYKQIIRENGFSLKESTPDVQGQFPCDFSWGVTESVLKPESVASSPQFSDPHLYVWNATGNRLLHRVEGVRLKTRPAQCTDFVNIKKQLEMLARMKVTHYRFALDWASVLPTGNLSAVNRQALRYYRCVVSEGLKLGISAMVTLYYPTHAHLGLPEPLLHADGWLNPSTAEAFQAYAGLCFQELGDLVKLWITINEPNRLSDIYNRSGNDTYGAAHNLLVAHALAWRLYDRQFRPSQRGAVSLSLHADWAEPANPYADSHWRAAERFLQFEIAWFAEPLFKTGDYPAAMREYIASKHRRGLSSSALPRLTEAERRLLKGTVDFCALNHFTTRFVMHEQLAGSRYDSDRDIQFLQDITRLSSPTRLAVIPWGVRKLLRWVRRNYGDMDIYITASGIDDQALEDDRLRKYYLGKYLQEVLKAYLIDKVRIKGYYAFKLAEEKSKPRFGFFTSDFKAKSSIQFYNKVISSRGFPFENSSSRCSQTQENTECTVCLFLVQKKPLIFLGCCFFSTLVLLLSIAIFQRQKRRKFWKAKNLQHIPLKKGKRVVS

T2: mouse beta klotho expressed on cells (mouse (Mus musculus), UniProt Q99N32 1-1043)
T2 construct: also called Mouse KLB
T2 sequence: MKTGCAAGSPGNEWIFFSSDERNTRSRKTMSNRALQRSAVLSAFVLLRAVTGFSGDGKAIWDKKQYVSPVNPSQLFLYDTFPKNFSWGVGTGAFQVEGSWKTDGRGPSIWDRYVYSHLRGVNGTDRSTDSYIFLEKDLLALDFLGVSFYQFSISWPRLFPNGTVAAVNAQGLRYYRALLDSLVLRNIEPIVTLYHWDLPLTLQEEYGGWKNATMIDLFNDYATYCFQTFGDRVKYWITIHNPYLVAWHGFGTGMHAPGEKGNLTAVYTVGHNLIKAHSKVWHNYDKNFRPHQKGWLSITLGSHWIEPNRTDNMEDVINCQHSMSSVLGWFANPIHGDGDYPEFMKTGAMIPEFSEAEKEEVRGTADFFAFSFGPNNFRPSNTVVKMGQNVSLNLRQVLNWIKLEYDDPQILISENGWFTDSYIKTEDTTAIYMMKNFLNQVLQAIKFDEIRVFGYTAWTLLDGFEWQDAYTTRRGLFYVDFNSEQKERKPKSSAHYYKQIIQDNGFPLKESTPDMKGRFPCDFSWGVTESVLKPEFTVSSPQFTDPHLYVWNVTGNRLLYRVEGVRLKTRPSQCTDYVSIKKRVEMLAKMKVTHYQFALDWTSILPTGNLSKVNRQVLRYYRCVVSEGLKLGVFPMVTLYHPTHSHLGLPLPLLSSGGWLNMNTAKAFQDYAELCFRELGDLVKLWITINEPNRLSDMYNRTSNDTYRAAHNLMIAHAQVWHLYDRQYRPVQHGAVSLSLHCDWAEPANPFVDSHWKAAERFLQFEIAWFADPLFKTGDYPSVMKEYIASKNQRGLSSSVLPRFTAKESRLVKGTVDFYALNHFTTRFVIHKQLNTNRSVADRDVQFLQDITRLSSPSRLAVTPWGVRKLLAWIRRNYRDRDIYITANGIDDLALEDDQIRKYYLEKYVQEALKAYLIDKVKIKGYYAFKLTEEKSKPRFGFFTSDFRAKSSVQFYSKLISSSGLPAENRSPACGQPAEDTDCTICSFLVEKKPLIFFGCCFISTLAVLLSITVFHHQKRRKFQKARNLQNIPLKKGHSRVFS

B1: negative control antibody, anti-keyhole limpet hemocyanin (KLH) antibody (antibody, human IgG1, kappa, V domains shown)
VH: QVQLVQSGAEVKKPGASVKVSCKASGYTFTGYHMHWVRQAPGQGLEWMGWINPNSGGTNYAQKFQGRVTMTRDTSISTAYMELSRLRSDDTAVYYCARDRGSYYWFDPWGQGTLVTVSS
VL: DIQMTQSPSSLSASVGDRVTITCRASQGIRNDLGWYQQKPGKAPKRLIYAASSLQSGVPSRFSGSGSGTEFTLTISSLQPEDFATYYCLQHNSYPLTFGGGTKVEIKR
notes: also called Neg; Control; anti-KLH antibody
B2: humanized 5H23 antibody (VH SEQ ID NO: 271 and VL SEQ ID NO: 276) (antibody, V domains shown)
VH: QVQLQQSGAEVKKPGASVKVSCKASGYTFTSYDINWVRQAPGQGLEWIGWIYPGDGSTKYNEKFKGKATITRDTSASTAYMELSSLRSEDTAVYFCARSDYYGSRSFAYWGQGTLVTVSS
VL: DIVMTQSPDSLAVSLGERATINCRASKSVSTSGYVYMHWYQQKPGQPPKLLIYLASYLESGVPDRFSGSGSGTDFTLTISSVQAEDVAVYYCQHSRDLTFPFGGGTKLEIK
notes: also called h5H23; h5H23 (Prep 1)

Tests used:
Assay in all cases: FACS on transfected Expi293 cells
[1] = molecular target: T1, human beta klotho expressed on cells
Experimental: (§1) Studies were performed in order to localize the binding site on human KLB of anti-beta klotho antibodies in the 5H23 epitope bin, including 5H23 as described in Example 3, with sequences shown in Tables 1-10 and FIGS. 1-3, and human anti-beta klotho antibodies in the 5H23 epitope bin, such as humanized 5H23 antibodies (e.g., VH SEQ ID NO: 271 and VL SEQ ID NO: 276). For example, FACS-based binding assays for domain mapping were performed on Expi293 cells (Life Technologies, A14635) that were transiently transfected with plasmids encoding variants of KLB: human, mouse, cynomolgus, a chimeric version in which the KL1 domain sequence of mouse KLB (M1-F506) replaces the KL1 domain of human KLB (M1-F508) to create mouse-human KLB (SEQ ID NO: 376), and a second chimera in which the human KL1 sequence (M1-F508) replaces the KL1 domain of mouse KLB (M1-F506) to create human-mouse KLB (SEQ ID NO: 374). Additionally, the expression vector pYD7 harboring no KLB sequence was transfected as a negative control.
(§2) In some studies, binding of a purified sample of a humanized 5H23 antibody (e.g., VH SEQ ID NO: 271 and VL SEQ ID NO: 276) to KLB variants was determined by FACS analysis. […] After washing with PBS/1% BSA/0.1% azide, transfected cells were then co-incubated with labeled anti-human Fc (Jackson lmmunoresearch) for 30 minutes at 4° C. After washing with PBS/1% BSA/0.1% azide, cells were acquired on flow cytometer (FACS Calibur) and analyzed by cytometric software (FlowJo). To display the resulting data, graphs plotting the number of cells as a function of fluorescence intensity were generated, and the median fluorescence intensity (MFI) was determined for each sample as shown in Table 30.

[2] = molecular target: T2, mouse beta klotho expressed on cells
Experimental: as §1, §2

[3] = molecular target: T3, human-mouse KLB chimeric protein (human KLB (M1-F508)-mouse KLB (P507-S1043)) on cells (human/mouse chimera, UniProt Q99N32 1-1043 (mouse entry))
T3 construct: also called Human-Mouse chimeric KLB; chHuMo
Experimental: as §1, §2

| Binder | binding result [1] | binding result [2] | binding result [3] |
| --- | --- | --- | --- |
| B1 | no binding (tested: 1 µg/ml) | – | – |
| B2 | – | no binding (tested: 1 µg/ml) | no binding (tested: 1 µg/ml) |
